The record followed here is US20070134724.

Series [1] addresses tau, shortest isoform (tau352).

Chain of tau, shortest isoform (tau352) (chain, as listed by the source): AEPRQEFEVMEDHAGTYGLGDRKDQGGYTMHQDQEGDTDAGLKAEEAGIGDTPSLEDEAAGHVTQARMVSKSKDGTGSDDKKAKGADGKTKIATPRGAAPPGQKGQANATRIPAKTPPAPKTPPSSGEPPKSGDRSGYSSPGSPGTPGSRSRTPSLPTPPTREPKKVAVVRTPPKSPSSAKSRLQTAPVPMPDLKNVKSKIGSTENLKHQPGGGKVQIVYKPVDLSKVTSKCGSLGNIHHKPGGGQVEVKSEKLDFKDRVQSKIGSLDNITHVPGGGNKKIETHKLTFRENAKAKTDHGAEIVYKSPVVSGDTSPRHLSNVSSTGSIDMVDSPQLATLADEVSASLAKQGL

B1: abl2 tyrosine kinase (protein)
chain: GQQVGRVGEAPGLQQPQPRGIRGSSAARPSGRRRDPAGRTTETGFNIFTQHDHFASCVEDGFEGDKTGGSSPEALHRPYGCDVEPQALNEAIRWSSKENLLGATESDPNLFVALYDFVASGDNTLSITKGEKLRVLGYNQNGEWSEVRSKNGQGWVPSNYITPVNSLEKHSWYHGPVSRSAAEYLLSSLINGSFLVRESESSPGQLSISLRYEGRVYHYRINTTADGKVYVTAESRFSTLAELVHHHSTVADGLVTTLHYPAPKCNKPTVYGVSPIHDKWEMERTDITMKHKLGGGQYGEVYVGVWKKYSLTVAVKTLKEDTMEVEEFLKEAAVMKEIKHPNLVQLLGVCTLEPPFYIVTEYMPYGNLLDYLRECNREEVTAVVLLYMATQISSAMEYLEKKNFIHRDLAARNCLVGENHVVKVADFGLSRLMTGDTYTAHAGAKFPIKWTAPESLAYNTFSIKSDVWAFGVLLWEIATYGMSPYPGIDLSQVYDLLEKGYRMEQPEGCPPKVYELMRACWKWSPADRPSFAETHQAFETMFHDSSISEEVAEELGRAASSSSVVPYLPRLPILPSKTRTLKKQVENKENIEGAQDATENSASSLAPGFIRGAQASSGSPALPRKQRDKSPSSLLEDAKETCFTRDRKGGFFSSFMKKRNAPTPPKRSSSFREMENQPHKKYELTGNFSSVASLQHADGFSFTPAQQEANLVPPKCYGGSFAQRNLCNDDGGGGGGSGTAGGGWSGITGFFTPRLIKKTLGLRAGKPTASDDTSKPFPRSNSTSSMSSGLPEQDRMAMTLPRNCQRSKLQLERTVSTSSQPEENVDRANDMLPKKSEESAAPSRERPKAKLLPRGATALPLRTPSGDLAITEKDPPGVGVAGVAAAPKGKEKNGGARLGMAGVPEDGEQPGWPSPAKAAPVLPTTHNHKVPVLISPTLKHTPADVQLIGTDSQGNKFKLLSEHQVTSSGDKDRPRRVKPKCAPPPPPVMRLLQHPSICSDPTEEPTALTAGQSTSETQEGGKKAALGAVPISGKAGRPVMPPPQVPLPTSSISPAKMANGTAGTKVALRKTKQAAEKISADKISKEALLECADLLSSALTEPVPNSQLVDTGHQLLDYCSGYVDCIPQTRNKFAFREAVSKLELSLQELQVSSAAAGVPGTNPVLNNLLSCVQEISDVVQR
For B1, the “phosphorylation of the short (3R) isoform co-transfected with abl2 (western blot, sandwich ELISA)” value in series [1] is reported as “Y394 was the predominant site of abl2 phosphorylation”. For the same protein, in the series with tau, the “phosphorylation of Y-to-F tau mutants co-transfected with abl2 (western blot with anti-pY)” value was “Abl2 strongly phosphorylates Y394, with lower levels of phosphorylation at Y197 and Y310”; the “phosphorylation of tau at Y310 (western blot with YP21)” value is “demonstrating phosphorylation of tau at Y310”; the “phosphorylation of the long (4R) isoform co-transfected with abl2 (western blot, sandwich ELISA)” value was “Y394 was the predominant site of abl2 phosphorylation”; the “tyrosine phosphorylation of tau with and without Gleevec (western blot, ELISA)” value is listed as “Abl1 or abl2 transfected into the cell is what directly phosphorylates tau”.

B2: Gleevec-resistant abl2 (T3611 form) (protein)
chain: GQQVGRVGEAPGLQQPQPRGIRGSSAARPSGRRRDPAGRTTETGFNIFTQHDHFASCVEDGFEGDKTGGSSPEALHRPYGCDVEPQALNEAIRWSSKENLLGATESDPNLFVALYDFVASGDNTLSITKGEKLRVLGYNQNGEWSEVRSKNGQGWVPSNYITPVNSLEKHSWYHGPVSRSAAEYLLSSLINGSFLVRESESSPGQLSISLRYEGRVYHYRINTTADGKVYVTAESRFSTLAELVHHHSTVADGLVTTLHYPAPKCNKPTVYGVSPIHDKWEMERTDITMKHKLGGGQYGEVYVGVWKKYSLTVAVKTLKEDTMEVEEFLKEAAVMKEIKHPNLVQLLGVCTLEPPFYIVIEYMPYGNLLDYLRECNREEVTAVVLLYMATQISSAMEYLEKKNFIHRDLAARNCLVGENHVVKVADFGLSRLMTGDTYTAHAGAKFPIKWTAPESLAYNTFSIKSDVWAFGVLLWEIATYGMSPYPGIDLSQVYDLLEKGYRMEQPEGCPPKVYELMRACWKWSPADRPSFAETHQAFETMFHDSSISEEVAEELGRAASSSSVVPYLPRLPILPSKTRTLKKQVENKENIEGAQDATENSASSLAPGFIRGAQASSGSPALPRKQRDKSPSSLLEDAKETCFTRDRKGGFFSSFMKKRNAPTPPKRSSSFREMENQPHKKYELTGNFSSVASLQHADGFSFTPAQQEANLVPPKCYGGSFAQRNLCNDDGGGGGGSGTAGGGWSGITGFFTPRLIKKTLGLRAGKPTASDDTSKPFPRSNSTSSMSSGLPEQDRMAMTLPRNCQRSKLQLERTVSTSSQPEENVDRANDMLPKKSEESAAPSRERPKAKLLPRGATALPLRTPSGDLAITEKDPPGVGVAGVAAAPKGKEKNGGARLGMAGVPEDGEQPGWPSPAKAAPVLPTTHNHKVPVLISPTLKHTPADVQLIGTDSQGNKFKLLSEHQVTSSGDKDRPRRVKPKCAPPPPPVMRLLQHPSICSDPTEEPTALTAGQSTSETQEGGKKAALGAVPISGKAGRPVMPPPQVPLPTSSISPAKMANGTAGTKVALRKTKQAAEKISADKISKEALLECADLLSSALTEPVPNSQLVDTGHQLLDYCSGYVDCIPQTRNKFAFREAVSKLELSLQELQVSSAAAGVPGTNPVLNNLLSCVQEISDVVQR
In the case of B2, in the series with tau, the “tyrosine phosphorylation of tau in the presence of Gleevec (western blot, ELISA)” value is on record as “In the presence of Gleevec, both forms could phosphorylate tau”.
